# Source: patent publication US9598677B2, “Use of human biliverdin reductase and fragments thereof for the treatment of protein kinase C-delta and ERK related conditions” (University of Rochester, priority 2009, dated 2017)
# Entries after “also recorded” stand apart in the source; their conditions may differ. Ends that are not written are not given here.
# B1: hBVR: purified E. coli expressed human biliverdin reductase (protein)
# chain: MNAEPERKFGVVVVGVGRAGSVRMRDLRNPHPSSAFLNLIGFVSRRELGSIDGVQQISLEDALSSQEVEVAYICSESSSHEDYIRQFLNAGKHVLVEYPMTLSLAAAQELWELAEQKGKVLHEEHVELLMEEFAFLKKEVVGKDLLKGSLLFTSDPLEEDRFGFPAFSGISRLTWLVSLFGELSLVSATLEERKEDQYMKMTVCLETEKKSPLSWIEEKGPGLKRNRYLSFHFKSGSLENVPNVGVNKNIFLKDQNIFVQKLLGQFSEKELAAEKKRILHCLGLAEEIQKYCCSRK
# modifications: GST tag; Homo sapien
# notes: purified E. coli expressed human biliverdin reductase
# How the values were obtained:
# recombinant human PKC-δ [1] = conditions: Nishikawa et al. 1997; read-out: reported Km for the commercial substrate; cited from earlier work
# Elk1 = experiment: Elk1-luciferase reporter assay; format: cell-based, human; conditions: myristoylated peptide 2 h prior to PMA, control PMA-treated cells, FIG. 10C
# Protocol: Elk1-luciferase reporter assay: Cells were co-transfected with the reporters pFA2-Elk1, pFR-Luc (Stratagene, La Jolla, Calif.) and pCMV-β-galactosidase, and other plasmids, as necessary. Cells were lysed; promoter activity was determined by luciferase assay and normalized on β-galactosidase.
# recombinant human PKC-δ [2] = experiment: PKC-δ kinase assay in vitro (p81 filter / autoradiography); format: biochemical
# Protocol: Measurement of PKC-δ activity: In vitro kinase activity assays were performed with active recombinant human PKC-δ kinase (as a GST fusion protein). PKC-δ assay in vitro was performed using 5 ng purified enzyme in a 50 μl assay containing 50 mM HEPES pH 7.4, 10 mM MgCl2, 0.2 mM DTT, sonicated lipid activators (0.5 μg phosphatidylserine and 0.05 μg diacylglycerol) or lipid activators plus PMA (as indicated in appropriate experiments) and PKC-δ substrates. The reaction was started by the addition of 50 μM ATP labeled with 5 μCi [γ-^32P]-ATP. Incubation was performed for 15 min at 30° C., unless otherwise stated. The reaction was terminated on ice, either by the addition of Laemmli buffer followed by SDS-PAGE, transferred to PVDF membrane, and autoradiography, or by the addition of 1 volume 10% phosphoric acid for p81 transfer as described below. For autophosphorylation of PKC-δ 20 μM ATP was used to start the 40-min reaction.
# When hBVR or its mutants were tested for their effect on PKC-δ activity, they were pre-incubated for 5 min at room temperature with the PKC prior to substrate addition. The hBVR-derived peptides were used at concentrations indicated in appropriate figures.
# When hBVR or its mutants were assayed as the sole substrates for PKC, the incubation conditions were as described above and the incubation was for 40 min at 30° C. unless specified otherwise. The reaction was terminated by the addition of Laemmli buffer, and the reaction products were detected by SDS-PAGE, transfer to PVDF membrane, and autoradiography.
# Measurement of PKC-δ activity: PKC-δ assay in vitro was performed using 0.1 ng/μl purified recombinant human PKC-δ kinase with reaction conditions specified by the manufacturer. Effector molecules such as hBVR or peptides were added 5 min prior to substrate. The reaction was started by the addition of [γ-^32P]-ATP (Lerner-Marmarosh et al., “Human Biliverdin Reductase: A Member of the Insulin Receptor Substrate Family with Serine/Threonine/Tyrosine Kinase Activity,” Proc. Natl. Acad. Sci. U.S.A. 102(20):7109-7114 (2005), which is hereby incorporated by reference in its entirety). Reaction products were detected either by gel electrophoresis and autoradiography or by the p81 filter assay. PKC-δ activity on agarose beads was also measured. Cell lysates were immunoprecipitated with anti-PKC-δ antibody followed by protein A/G agarose. The immunoprecipitates were used in kinase reactions containing 50 μM PKC-δ specific peptide substrate as above; incorporation of ^32P was measured by p81 method.
# PKC-δ = PKC-δ (Homo sapiens, UniProt Q05655); experiment: GST-hBVR pull-down of PKC-δ from cell lysate; format: binding; set-up: The human PKC-δ open reading frame was also cloned in the same vectors; expressed in transfected cells; host or cells: HEK 293A (PKC-δ); E. coli, pGEX-4T2 (GST-hBVR); conditions: 30 min and 120 min incubation, FIG. 2A
# Protocol: Cell Culture, infection, transfection, GST pull-down and co-immunoprecipitation: HEK 293A cells were grown in Dulbecco's Modified Eagle Medium (Invitrogen) containing 10% fetal bovine serum and 1% penicillin-G/streptomycin for 24 h or until the cells reached 70% confluency. Depending on the experiment, cells were subsequently transfected with up to 5 μg of pcDNA3-hBVR or pcDNA3-PKC-δ plasmid using Transfectin Lipid Reagent (Bio-Rad, Hercules, Calif.) in 10 cm plates. Western blotting determined overexpression of hBVR or PKC-δ. To prepare si-hBVR or sc-hBVR (containing a randomized variant of the sihBVR sequence), pSuper-Retro-si-hBVR (Miralem et al., “Small Interference RNA-Mediated Gene Silencing of Human Biliverdin Reductase, But Not That of Heme Oxygenase-1, Attenuates Arsenite-Mediated Induction of the Oxygenase and Increases Apoptosis in 293A Kidney Cells,” J. Biol. Chem. 280:17084-17092 (2005), which is hereby incorporated by reference in its entirety) or sc-hBVR, respectively, were introduced into 293A cells for packaging, and the si-hBVR or sc-hBVR retrovirus were titrated using NIH3T3 cells. […] Proteins were separated by SDS-page and detected by immunoblotting using anti-PKC-δ antibodies.
# PKC-δ, sequence (Q05655 whole entry): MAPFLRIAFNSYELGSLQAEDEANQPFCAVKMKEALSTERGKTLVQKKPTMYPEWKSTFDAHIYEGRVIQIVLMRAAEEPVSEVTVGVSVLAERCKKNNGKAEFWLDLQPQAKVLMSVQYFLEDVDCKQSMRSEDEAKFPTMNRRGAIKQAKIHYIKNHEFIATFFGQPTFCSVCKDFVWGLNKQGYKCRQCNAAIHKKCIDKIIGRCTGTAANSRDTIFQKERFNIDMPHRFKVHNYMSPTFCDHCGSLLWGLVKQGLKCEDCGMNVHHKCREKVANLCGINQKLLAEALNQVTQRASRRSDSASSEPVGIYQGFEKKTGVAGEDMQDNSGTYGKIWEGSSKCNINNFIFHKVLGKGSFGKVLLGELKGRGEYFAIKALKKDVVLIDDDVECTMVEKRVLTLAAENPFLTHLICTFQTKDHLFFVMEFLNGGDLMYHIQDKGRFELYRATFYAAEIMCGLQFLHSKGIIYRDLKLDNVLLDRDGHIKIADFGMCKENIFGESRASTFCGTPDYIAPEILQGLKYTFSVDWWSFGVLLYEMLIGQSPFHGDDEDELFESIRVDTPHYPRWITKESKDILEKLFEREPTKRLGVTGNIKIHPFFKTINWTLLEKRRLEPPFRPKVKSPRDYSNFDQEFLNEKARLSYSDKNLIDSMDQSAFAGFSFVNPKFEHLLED
molecule,measurement,setting,value
ARRKRKGSFFGG (PKC-delta substrate) [commercial peptide identified by Nishikawa as the optimal substrate for PKC-δ],Km,recombinant human PKC-δ [1],0.98 µM
"SAFAGFSFVNPKFEHLLED (also: myristoylation, place not given here) [myristoylated PKC-δ bulky Ring motif C-terminal peptide]",inhibition of Elk1 dependent luciferase expression,Elk1,90%
B1,PKC-δ kinase activity toward MBP in presence of hBVR,"recombinant human PKC-δ [2]; 2 μg GST-hBVR, 12.5 μM MBP, FIG. 1B",increased kinase activity
same,PKC-δ autophosphorylation in presence of hBVR,"recombinant human PKC-δ [2]; FIGS. 1A, 1C, 7C",enhanced; also recorded: increased
same,binding of PKC-δ from cell lysates,PKC-δ,selectively bound PKC-δ
